The record followed here is patent US12630600B2 (MEDIMMUNE LIMITED, priority 2022, dated 2026).

Test [1] addresses human glucagon receptor (human, UniProt P47871). Kind of test: cell-based or functional assay.
Test [2] concerns the target human GLP-1 receptor (human, UniProt P43220). Put plainly: cell-based or functional assay.

Starred links: 1 amine or outer side, 2 acyl side, 3 side chain; linkers in the order of their positions; H or OH if unused. Non-standard residues stand in square brackets, D forms with d. Groups on a side chain read outwards from the residue. No end group written: not given here. *: point of attachment. C20 diacid = O=C(O)CCCCCCCCCCCCCCCCCCC(=O)*; C18 diacid = O=C(O)CCCCCCCCCCCCCCCCC(=O)*; γGlu = O=C(O)[C@H](CCC(=O)[*:2])N[*:1]; αMeF = C[C@](N)(Cc1ccccc1)C(=O)O; AEEA = NCCOCCOCC(=O)O; Aib = CC(C)(N)C(=O)O

B1: Peptide 141 (peptide)
peptide: H[Aib]QGTFTSDVSK[αMeF]LDSK([AEEA-AEEA-γGlu-C18 diacid])RAQDFVAWLLE[Aib]G-OH
modifications: N-terminus assumed
SMILES: CC(C)C[C@H](NC(=O)[C@H](Cc1c[nH]c2ccccc12)NC(=O)[C@H](C)NC(=O)[C@@H](NC(=O)[C@H](Cc1ccccc1)NC(=O)[C@H](CC(=O)O)NC(=O)[C@H](CCC(N)=O)NC(=O)[C@H](C)NC(=O)[C@H](CCCNC(=N)N)NC(=O)[C@H](CCCCNC(=O)COCCOCCNC(=O)COCCOCCNC(=O)CC[C@H](NC(=O)CCCCCCCCCCCCCCCCC(=O)O)C(=O)O)NC(=O)[C@H](CO)NC(=O)[C@H](CC(=O)O)NC(=O)[C@H](CC(C)C)NC(=O)[C@](C)(Cc1ccccc1)NC(=O)[C@H](CCCCN)NC(=O)[C@H](CO)NC(=O)[C@@H](NC(=O)[C@H](CC(=O)O)NC(=O)[C@H](CO)NC(=O)[C@@H](NC(=O)[C@H](Cc1ccccc1)NC(=O)[C@@H](NC(=O)CNC(=O)[C@H](CCC(N)=O)NC(=O)C(C)(C)NC(=O)[C@@H](N)Cc1c[nH]cn1)[C@@H](C)O)[C@@H](C)O)C(C)C)C(C)C)C(=O)N[C@@H](CC(C)C)C(=O)N[C@@H](CCC(=O)O)C(=O)NC(C)(C)C(=O)NCC(=O)O
Consider B1, for which the “cAMP production EC50” value in test [1] stood at 0.392 nM; in test [2], 0.264 nM.

B2: Peptide 138 (peptide)
peptide: H[Aib]QGTFTSDVSK[αMeF]LDSK([γGlu-γGlu-AEEA-AEEA-γGlu-γGlu-C18 diacid])RAQDFVRWLLE[Aib]G-OH
modifications: N-terminus assumed
SMILES: CC(C)C[C@H](NC(=O)[C@H](Cc1c[nH]c2ccccc12)NC(=O)[C@H](CCCNC(=N)N)NC(=O)[C@@H](NC(=O)[C@H](Cc1ccccc1)NC(=O)[C@H](CC(=O)O)NC(=O)[C@H](CCC(N)=O)NC(=O)[C@H](C)NC(=O)[C@H](CCCNC(=N)N)NC(=O)[C@H](CCCCNC(=O)CC[C@H](NC(=O)CC[C@H](NC(=O)COCCOCCNC(=O)COCCOCCNC(=O)CC[C@H](NC(=O)CC[C@H](NC(=O)CCCCCCCCCCCCCCCCC(=O)O)C(=O)O)C(=O)O)C(=O)O)C(=O)O)NC(=O)[C@H](CO)NC(=O)[C@H](CC(=O)O)NC(=O)[C@H](CC(C)C)NC(=O)[C@](C)(Cc1ccccc1)NC(=O)[C@H](CCCCN)NC(=O)[C@H](CO)NC(=O)[C@@H](NC(=O)[C@H](CC(=O)O)NC(=O)[C@H](CO)NC(=O)[C@@H](NC(=O)[C@H](Cc1ccccc1)NC(=O)[C@@H](NC(=O)CNC(=O)[C@H](CCC(N)=O)NC(=O)C(C)(C)NC(=O)[C@@H](N)Cc1c[nH]cn1)[C@@H](C)O)[C@@H](C)O)C(C)C)C(C)C)C(=O)N[C@@H](CC(C)C)C(=O)N[C@@H](CCC(=O)O)C(=O)NC(C)(C)C(=O)NCC(=O)O
Regarding B2, the “cAMP production EC50” value in test [1] was found to be 0.184 nM; in test [2], 0.104 nM.

B3: Peptide 137 (peptide)
peptide: H[Aib]QGTFTSDVSK[αMeF]LDSK([γGlu-γGlu-AEEA-AEEA-γGlu-γGlu-C18 diacid])RAQDFVRWLLEG[Aib]-OH
modifications: N-terminus assumed
SMILES: CC(C)C[C@H](NC(=O)[C@H](CC(C)C)NC(=O)[C@H](Cc1c[nH]c2ccccc12)NC(=O)[C@H](CCCNC(=N)N)NC(=O)[C@@H](NC(=O)[C@H](Cc1ccccc1)NC(=O)[C@H](CC(=O)O)NC(=O)[C@H](CCC(N)=O)NC(=O)[C@H](C)NC(=O)[C@H](CCCNC(=N)N)NC(=O)[C@H](CCCCNC(=O)CC[C@H](NC(=O)CC[C@H](NC(=O)COCCOCCNC(=O)COCCOCCNC(=O)CC[C@H](NC(=O)CC[C@H](NC(=O)CCCCCCCCCCCCCCCCC(=O)O)C(=O)O)C(=O)O)C(=O)O)C(=O)O)NC(=O)[C@H](CO)NC(=O)[C@H](CC(=O)O)NC(=O)[C@H](CC(C)C)NC(=O)[C@](C)(Cc1ccccc1)NC(=O)[C@H](CCCCN)NC(=O)[C@H](CO)NC(=O)[C@@H](NC(=O)[C@H](CC(=O)O)NC(=O)[C@H](CO)NC(=O)[C@@H](NC(=O)[C@H](Cc1ccccc1)NC(=O)[C@@H](NC(=O)CNC(=O)[C@H](CCC(N)=O)NC(=O)C(C)(C)NC(=O)[C@@H](N)Cc1c[nH]cn1)[C@@H](C)O)[C@@H](C)O)C(C)C)C(C)C)C(=O)N[C@@H](CCC(=O)O)C(=O)NCC(=O)NC(C)(C)C(=O)O
Consider B3, for which the “cAMP production EC50” value in test [1] is 0.268 nM; in test [2], 0.143 nM.

B4: Peptide 143 (peptide)
peptide: H[Aib]QGTFTSDVSK[αMeF]LDSK([AEEA-AEEA-γGlu-C18 diacid])RARDFVQWLLE[Aib]G-OH
modifications: N-terminus assumed
SMILES: CC(C)C[C@H](NC(=O)[C@H](Cc1c[nH]c2ccccc12)NC(=O)[C@H](CCC(N)=O)NC(=O)[C@@H](NC(=O)[C@H](Cc1ccccc1)NC(=O)[C@H](CC(=O)O)NC(=O)[C@H](CCCNC(=N)N)NC(=O)[C@H](C)NC(=O)[C@H](CCCNC(=N)N)NC(=O)[C@H](CCCCNC(=O)COCCOCCNC(=O)COCCOCCNC(=O)CC[C@H](NC(=O)CCCCCCCCCCCCCCCCC(=O)O)C(=O)O)NC(=O)[C@H](CO)NC(=O)[C@H](CC(=O)O)NC(=O)[C@H](CC(C)C)NC(=O)[C@](C)(Cc1ccccc1)NC(=O)[C@H](CCCCN)NC(=O)[C@H](CO)NC(=O)[C@@H](NC(=O)[C@H](CC(=O)O)NC(=O)[C@H](CO)NC(=O)[C@@H](NC(=O)[C@H](Cc1ccccc1)NC(=O)[C@@H](NC(=O)CNC(=O)[C@H](CCC(N)=O)NC(=O)C(C)(C)NC(=O)[C@@H](N)Cc1c[nH]cn1)[C@@H](C)O)[C@@H](C)O)C(C)C)C(C)C)C(=O)N[C@@H](CC(C)C)C(=O)N[C@@H](CCC(=O)O)C(=O)NC(C)(C)C(=O)NCC(=O)O
With B4, the “cAMP production EC50” value is 0.0326 nM in test [1] and 0.0191 nM in test [2].

B5: Peptide 142 (peptide)
peptide: H[Aib]QGTFTSDVSK[αMeF]LDSK([AEEA-AEEA-γGlu-C18 diacid])RARDFVAWLLE[Aib]G-OH
modifications: N-terminus assumed
SMILES: CC(C)C[C@H](NC(=O)[C@H](Cc1c[nH]c2ccccc12)NC(=O)[C@H](C)NC(=O)[C@@H](NC(=O)[C@H](Cc1ccccc1)NC(=O)[C@H](CC(=O)O)NC(=O)[C@H](CCCNC(=N)N)NC(=O)[C@H](C)NC(=O)[C@H](CCCNC(=N)N)NC(=O)[C@H](CCCCNC(=O)COCCOCCNC(=O)COCCOCCNC(=O)CC[C@H](NC(=O)CCCCCCCCCCCCCCCCC(=O)O)C(=O)O)NC(=O)[C@H](CO)NC(=O)[C@H](CC(=O)O)NC(=O)[C@H](CC(C)C)NC(=O)[C@](C)(Cc1ccccc1)NC(=O)[C@H](CCCCN)NC(=O)[C@H](CO)NC(=O)[C@@H](NC(=O)[C@H](CC(=O)O)NC(=O)[C@H](CO)NC(=O)[C@@H](NC(=O)[C@H](Cc1ccccc1)NC(=O)[C@@H](NC(=O)CNC(=O)[C@H](CCC(N)=O)NC(=O)C(C)(C)NC(=O)[C@@H](N)Cc1c[nH]cn1)[C@@H](C)O)[C@@H](C)O)C(C)C)C(C)C)C(=O)N[C@@H](CC(C)C)C(=O)N[C@@H](CCC(=O)O)C(=O)NC(C)(C)C(=O)NCC(=O)O
As for B5, the entries for the “cAMP production EC50” value in test [1] and in test [2] were 0.108 nM and 0.0594 nM, respectively.

H[Aib]QGTFTSDVSK[αMeF]LDSK([γGlu-γGlu-AEEA-AEEA-γGlu-γGlu-C20 diacid])RAQDFVRWLLE[Aib]G-OH [Peptide 139]: the figures for the “cAMP production EC50” value in test [1] and in test [2] were 0.984 nM and 0.63 nM, respectively.
